According to article PMC11210195 (2024):

What was measured:
[1] = biological target: mAb1 WT (human IgG1 Fc WT) (human, UniProt P01857 = IgG part); assay: SPR
mAb1 WT-AAA = mAb1 WT-AAA (human, UniProt P01857 = IgG part); assay: SPR

koff [1]: 0.0994 s⁻¹
koff (mAb1 WT-AAA): 0.105 s⁻¹
B1: TRIM21 PRYSPRY domain (domain or fragment)
chain: GLKKMLRTCAVHITLDPDTANPWLILSEDRRQVRLGDTQQSIPGNEERFDSYPMVLGAQHFHSGKHYWEVDVTGKEAWDLGVCRDSVRRKGHFLLSSKSGFWTIWLWNKQKYEAGTYPQTPLHLQVPPCQVGIFLDYEAGMVSFYNITDHGSLIYSFSECAFTGPLRPFFSPGFNDGGKNTAPLTLCPLNIGSQGSTDY
modifications: biotinylated where it was captured via monovalent streptavidin
